Read-outs that look alike come from different tables or passages of the source. Some results are limits rather than exact numbers.

The test system of the experiment is peptide substrates. In kind it is biochemical.
The mark [1] stands for this setting: substrate AAPFQQ (SEQ ID NO: 118), 1 mM Peptide, 1 μM enzyme, 10 mM Mg(OAc)2, 50 mM MOPS pH 8, 60 mM KOAc, RT/0.5 hr.
Setting [2] is: substrate CCPFQQ (SEQ ID NO: 144), 1 mM Peptide, 1 μM enzyme, 10 mM Mg(OAc)2, 50 mM MOPS pH 8, 60 mM KOAc, RT/0.5 hr.
[3] abbreviates: substrate DDPFQQ (SEQ ID NO: 126), 1 mM Peptide, 1 μM enzyme, 10 mM Mg(OAc)2, 50 mM MOPS pH 8, 60 mM KOAc, RT/0.5 hr.
[4] abbreviates: substrate EEPFQQ (SEQ ID NO: 128), 1 mM Peptide, 1 uM enzyme, 10 mM Mg(OAc)2, 50 mM MOPS pH 8, 60 mM KOAc, RT/0.5 hr.
The mark [5] stands for this setting: substrate FFPFQQ (SEQ ID NO: 124), 1 mM Peptide, 1 μM enzyme, 10 mM Mg(OAc)2, 50 mM MOPS pH 8, 60 mM KOAc, RT/0.5 hr.
The mark [6] stands for this setting: substrate GGPFQQ (SEQ ID NO: 152), 1 mM Peptide, 1 uM enzyme, 10 mM Mg(OAc)2, 50 mM MOPS pH 8, 60 mM KOAc, RT/0.5 hr.
The mark [7] stands for this setting: substrate HHPFQQ (SEQ ID NO: 154), 1 mM Peptide, 1 uM enzyme, 10 mM Mg(OAc)2, 50 mM MOPS pH 8, 60 mM KOAc, RT/0.5 hr.
The mark [8] stands for this setting: substrate IIPFQQ (SEQ ID NO: 136), 1 mM Peptide, 1 μM enzyme, 10 mM Mg(OAc)2, 50 mM MOPS pH 8, 60 mM KOAc, RT/0.5 hr.
[9] abbreviates: substrate KKPFQQ (SEQ ID NO: 120), 1 mM Peptide, 1 uM enzyme, 10 mM Mg(OAc)2, 50 mM MOPS pH 8, 60 mM KOAc, RT/0.5 hr.
[10] abbreviates: substrate LLPFQQ (SEQ ID NO: 138), 1 mM Peptide, 1 μM enzyme, 10 mM Mg(OAc)2, 50 mM MOPS pH 8, 60 mM KOAc, RT/0.5 hr.
The mark [11] stands for this setting: substrate MMPFQQ (SEQ ID NO: 148), 1 mM Peptide, 1 uM enzyme, 10 mM Mg(OAc)2, 50 mM MOPS pH 8, 60 mM KOAc, RT/0.5 hr.
The mark [12] stands for this setting: substrate NNPFQQ (SEQ ID NO: 130), 1 mM Peptide, 1 μM enzyme, 10 mM Mg(OAc)2, 50 mM MOPS pH 8, 60 mM KOAc, RT/0.5 hr.
Where [13] appears, read: substrate PPPFQQ (SEQ ID NO: 150), 1 mM Peptide, 1 uM enzyme, 10 mM Mg(OAc)2, 50 mM MOPS pH 8, 60 mM KOAc, RT/0.5 hr.
[14] abbreviates: substrate QQPFQQ (SEQ ID NO: 132), 1 mM Peptide, 1 μM enzyme, 10 mM Mg(OAc)2, 50 mM MOPS pH 8, 60 mM KOAc, RT/0.5 hr.
[15] abbreviates: substrate RRPFQQ (SEQ ID NO: 116), 1 mM Peptide, 1 uM enzyme, 10 mM Mg(OAc)2, 50 mM MOPS pH 8, 60 mM KOAc, RT/0.5 hr.
Where [16] appears, read: substrate SSPFQQ (SEQ ID NO: 140), 1 mM Peptide, 1 μM enzyme, 10 mM Mg(OAc)2, 50 mM MOPS pH 8, 60 mM KOAc, RT/0.5 hr.
[17] abbreviates: substrate TTPFQQ (SEQ ID NO: 142), 1 mM Peptide, 1 μM enzyme, 10 mM Mg(OAc)2, 50 mM MOPS pH 8, 60 mM KOAc, RT/0.5 hr.
Where [18] appears, read: substrate VVPFQQ (SEQ ID NO: 134), 1 mM Peptide, 1 μM enzyme, 10 mM Mg(OAc)2, 50 mM MOPS pH 8, 60 mM KOAc, RT/0.5 hr.
Where [19] appears, read: substrate WWPFQQ (SEQ ID NO: 146), 1 mM Peptide, 1 μM enzyme, 10 mM Mg(OAc)2, 50 mM MOPS pH 8, 60 mM KOAc, RT/0.5 hr.
[20] abbreviates: substrate YYPFQQ (SEQ ID NO: 122), 1 mM Peptide, 1 μM enzyme, 10 mM Mg(OAc)2, 50 mM MOPS pH 8, 60 mM KOAc, RT/0.5 hr.

B1: Rat APN (protein)
chain: KPWNQYRLPKTLIPDSYQVTLRPYLTPNEQGLYIFKGSSTVRFTCNETTNVIIIHSKKLNYTNKGNHRVALRALGDTPAPNIDTTELVERTEYLVVHLQGSLVKGHQYEMDSEFQGELADDLAGFYRSEYMEGGNKKVVATTQMQAADARKSFPCFDEPAMKASFNITLIHPNNLTALSNMLPKDSRTLQEDPSWNVTEFHPTPKMSTYLLAYIVSEFKYVEAVSPNRVQIRIWARPSAIDEGHGDYALQVTGPILNFFAQHYNTAYPLEKSDQIALPDFNAGAMENWGLVTYRESALVFDPQSSSISNKERVVTVIAHELAHQWFGNLVTVDWWNDLWLNEGFASYVEFLGADYAEPTWNLKDLIVLNDVYRVMAVDALASSHPLSSPANEVNTPAQISELFDSITYSKGASVLRMLSSFLTEDLFKKGLSSYLHTFQYSNTIYLDLWEHLQQAVDSQTAIKLPASVSTIMDRWILQMGFPVITVNTSTGEIYQEHFLLDPTSKPTRPSDFNYLWIVPIPYLKNGKEDHYWLETEKNQSAEFQTSSNEWLLLNINVTGYYQVNYDENNWRKIQNQLQTDLSVIPVINRAQIIHDSFNLASAGKLSITLPLSNTLFLASETEYMPWEAALSSLNYFKLMFDRSEVYGPMKRYLKKQVTPLFAYFKIKTNNWLDRPPTLMEQYNEINAISTACSSGLEECRDLVVGLYSQWMNNSDNNPIHPNLRSTVYCNAIAFGGEEEWNFAWEQFRKATLVNEADKLRSALACSNEVWILNRYLSYTLNPDYIRKQDATSTIVSIANNVVGQTLVWDFVRSNWKKLFEDYGGGSFSFANLIQGVTRRFSSEFELQQLEQFKEDNSATGFGSGTRALEQALEKTKANIKWVKENKDVVLKWFTENS
As to B1, the “HPLC Assay Conv” value is recorded as 100% (substrate AAPAAP{LYSN3}NH2 (SEQ ID NO: 98), 1 mM peptide, 50 nM enzyme, 2.5 mM ZnCl2, 25 mM Tris pH 8.0, 30° C./1 hr); above 90% (substrate KKMKKMLys-Triazole-PEG4 Biotin (SEQ ID NO: 89), 1 mM peptide, 150 nM enzyme, 2.5 mM ZnCl2 25 mM Tris pH 8.0, 30° C./1 hr); 50% (substrate KKMKKM{LYSN3}NH2 (SEQ ID NO: 71), 1 mM peptide, 50 nM enzyme, 2.5 mM ZnCl2, 25 mM Tris pH 8.0, 30° C./1 hr); 85% (substrate KKPKKP{LYSN3}NH2 (SEQ ID NO: 100), 1 mM peptide, 50 nM enzyme, 2.5 mM ZnCl2, 25 mM Tris pH 8.0, 30° C./1 hr); above 95% (substrate QP5-Atto649N ([…]{LYSN3}NH2) (SEQ ID NO: 106), 37 μM Peptide, 100 nM Enzyme, 2.5 mM ZnCl2, 25 mM Tris pH 8.0, 37° C./0.5 hr); 55% (substrate RRPRRP{LYSN3}NH2 (SEQ ID NO: 96), 1 mM peptide, 50 nM enzyme, 2.5 mM ZnCl2, 25 mM Tris pH 8.0, 30° C./1 hr).

B2: PfuTET: Pfu aminopeptidase I (protein)
chain: MVDWELMKKIIESPGVSGYEHLGIRDLVVDILKDVADEVKIDKLGNVIAHFKGSAPKVMVAAHMDKIGLMVNHIDKDGYLRVVPIGGVLPETLIAQKIRFFTEKGERYGVVGVLPPHLRREAKDQGGKIDWDSIIVDVGASSREEAEEMGFRIGTIGEFAPNFTRLSEHRFATPYLDDRICLYAMIEAARQLGEHEADIYIVASVQEEIGLRGARVASFAIDPEVGIAMDVTFAKQPNDKGKIVPELGKGPVMDVGPNINPKLRQFADEVAKKYEIPLQVEPSPRPTGTDANVMQINREGVATAVLSIPIRYMHSQVELADARDVDNTIKLAKALLEELKPMDFTPLE
Turning to B2, the “HPLC Assay Conv” value under setting [1] is 100%; the “HPLC Assay Conv” value under setting [2] came out at 72%; the “HPLC Assay Conv” value under setting [3] is 86%; the “HPLC Assay Conv” value under setting [4] was found to be 93%; the “HPLC Assay Conv” value under setting [5] is listed as 65%; the “HPLC Assay Conv” value under setting [6] was found to be 0%. Also, the “HPLC Assay Conv” value reads like this: under setting [7], 19%; under setting [8], 0%; under setting [9], 100%; under setting [10], 99%; under setting [11], 100%; under setting [12], 81%. Besides, the “HPLC Assay Conv” value is 0% under setting [13]; 100% under setting [14]; 100% under setting [15]; 90% under setting [16]; 100% under setting [17]; 0% under setting [18]. For the same molecule, the “HPLC Assay Conv” value amounted to 37% under setting [19] and 100% under setting [20].

B3: hTET: Pyrococcus horikoshii TET aminopeptidase, SEQ ID NO: 59 (protein, listed as Pyrococcus horikoshii)
chain: MEVRNMVDYELLKKVVEAPGVSGYEFLGIRDVVIEEIKDYVDEVKVDKLGNVIAHKKGEGPKVMIAAHMDQIGLMVTHIEKNGFLRVAPIGGVDPKTLIAQRFKVWIDKGKFIYGVGASVPPHIQKPEDRKKAPDWDQIFIDIGAESKEEAEDMGVKIGTVITWDGRLERLGKHRFVSIAFDDRIAVYTILEVAKQLKDAKADVYFVATVQEEVGLRGARTSAFGIEPDYGFAIDVTIAADIPGTPEHKQVTHLGKGTAIKIMDRSVICHPTIVRWLEELAKKHEIPYQLEILLGGGTDAGAIHLTKAGVPTGALSVPARYIHSNTEVVDERDVDATVELMTKALENIHELKI
Turning to B3, the “HPLC Assay Conv” value is, setting by setting: under setting [1], 100%; under setting [2], 32%; under setting [3], 4%; under setting [4], 0%; under setting [5], 100%; under setting [6], 33%. Also, the “HPLC Assay Conv” value was 26% under setting [7]; 100% under setting [8]; 0% under setting [9]; 100% under setting [10]; 0% under setting [11]; 69% under setting [12]. The “HPLC Assay Conv” value runs as follows: under setting [13], 0%; under setting [14], 63%; under setting [15], 0%; under setting [16], 100%; under setting [17], 100%; under setting [18], 100%. For the same molecule, the “HPLC Assay Conv” value runs as follows: under setting [19], 4%; under setting [20], 99%; (substrate […]1 (SEQ ID NO: 156), 1 mM Peptide, 1.0 μM enzyme, 10 mM Mg(OAc)2, 50 mM MOPS pH 8, 60 mM KOAc, RT/0.5 hr) 100%; (substrate […], 200 μM Peptide, 2 μM, 37° C. (rest of the wrapped entry lies below the rows shown)) 55%; (substrate […]{LYSN3}NH2 (SEQ ID NO: 107), 200 μM Peptide, 2 μM enzyme, 10 mM MgCl2, 50 mM MOPS pH 8.0, 37° C./1 hr) 55%; (substrate […]{LYSN3}NH2 (SEQ ID NO: 109), 200 μM Peptide, 4 μM enzyme, 10 mM MgCl2, 50 mM MOPS pH 8.0, 37° C./1 hr) 100%.

For the origin of these results see patent US12618845B2, “Methods and compositions for protein sequencing” (Quantum-Si Incorporated, priority 2018, dated 2026).
